Test results published in US5932425A, “Compositions and methods for modulating cellular NF-κB activation” (Signal Pharmaceuticals, Inc., priority 1997, dated 1999).
Non-standard residues stand in square brackets, D forms with d. No end group written: not given here. pS = N[C@@H](COP(=O)(O)O)C(=O)O

Experiments:
[1] = molecular target: pIκBα ubiquitination (E3 ubiquitin ligase); assay: In vitro ubiquitination assay of phosphorylated, NF-κB complex-associated IκBα; assay type: biochemical, human; conditions: complex-associated 35S-pIκBα, HeLa extract, Bestatin 40 μg/ml; read-out: IC50 of inhibition of the pIκBα ubiquitin conjugation reaction
Protocol: Following incubation, 1 μl of anti-p65 serum was added, and the NF-κB immune complex was immobilized to Protein A-Sepharose® and subjected to in vitro ubiquitination in HeLa cell extract as described by Alkalay et al. Ubiquitinated proteins were separated by SDS-PAGE and visualized by autoradiography.
To identify the IκBα-ubiquitin ligase recognition motif, various peptides were added at varying concentrations to the reaction mixtures in the presence of the peptidase inhibitor Bestatin (40 μg/ml). The peptides spanned the N-terminal signaling domain of the protein, and were phosphorylated at one or both serine residues (32 and 36), or were unmodified or serine-substituted. These peptides were included in the ubiquitination reaction at different concentrations and tested for inhibition of pIκBα specific ubiquitination. When conjugation of free IκBα was monitored, the translated protein was added directly to the conjugation reaction mixture.

[2] = system: NF-κB nuclear translocation in HeLa cells; assay: Microinjection into HeLa cells, TNFα activation, p65 nuclear staining; assay type: cell-based, human; conditions: 5 mg/ml microinjected, TNFα 200 units/mL for 20 minutes
Protocol: Following microinjection, cells are stimulated (e.g., with TNFα) and incubated to allow NF-κB activation. In HeLa cells, TNFα induces rapid nuclear translocation of NF-κB into the nucleus, which may be detected by staining with p65-specific antibodies. Modulating agents induce a statistically significant decrease in NF-κB translocation, and may reduce such translocation to undetectable levels.
(§1) HeLa cells were plated on a grid coverslips (Cellocate, Eppendorf) 18 hours before microinjection. Microinjection was performed with a 22 amino acid pIκBα peptide (pp21; Table I and SEQ ID NO:9) or a control phospho-Fos peptide (SEQ ID NO:10) using a semi-automated apparatus (Eppendorf). Peptides were injected into the cell cytoplasm at a concentration of 5 mg/ml in 100 mM KCl, 5 mM Na2 HPO4 (pH 7.2), and immediately activated with TNFα (200 units/mL) for either 20 minutes (for NF-κB translocation) or 3 hours (for E-selectin expression). Following activation, the cells were fixed and stained with p65 specific antibodies (Mercurio et al., Genes & Dev. 7:705, 1993; Santa Cruz) or monoclonal anti-E-selectin antibodies (R&D Systems).

[3] = system: E-selectin expression in HUVEC; assay: Microinjection into HUVEC, TNFα activation, E-selectin staining; assay type: cell-based, human; conditions: 5 mg/ml microinjected, TNFα 3 hours
Text: Primary human vascular endothelial cells (HUVEC) respond to TNFα stimulation by surface expression of NF-κB regulated adhesion proteins such as ICAM-1, V-CAM-1 and E-selectin (Read et al., Immunity 2:493,1995; Chen et al., J. Immunol 155:3538, 1995). E-selectin expression is particularly NF-κB dependent and is the major inducible endothelial adhesion molecule for initial neutrophil attachment and rolling on activated endothelium. Stimulated cells may be fixed and stained to detect expression of one or more NF-κB regulated adhesion proteins.
as §1, with “Systems). […]” for “Systems).”

[4] = molecular target: specific E3 ubiquitin ligase that recognises phosphorylated IκB

CDS*GLDS*M (CD[pS]GLD[pS]M) [pp7]
IC50 [1]: 10 µM

CKKERLLDDRHDS*GLDS*MKDEE (CKKERLLDDRHD[pS]GLD[pS]MKDEE) [pp21]
microinjected cells in which TNFα-stimulated NF-κB activation was abolished [2]: 50%-70% | microinjected cells with inhibition of E-selectin expression [3]: 70%-80%

B1: doubly phosphorylated IκBα peptide pp19 (peptide)
peptide: CERLLDDRHD[pS]GLD[pS]MKDEE
IC50 of inhibition of the pIκB conjugation reaction [4]: 5 µM

B2: singly phosphorylated IκBα peptide ppS32 (peptide)
peptide: CKKERLLDDRHD[pS]GLDSMKDEE
IC50 of inhibition of the pIκBα conjugation [4]: 400 µM

B3: doubly phosphorylated IκBα peptide pp15 (peptide)
peptide: CDDRHD[pS]GLD[pS]MKDEE
IC50 of inhibition of the pIκB conjugation reaction [4]: 5 µM

B4: doubly phosphorylated IκBα peptide pp21 (peptide)
peptide: CKKERLLDDRHD[pS]GLD[pS]MKDEE
IC50 of inhibition of the pIκB conjugation reaction [4]: 5 µM

B5: doubly phosphorylated IκBα peptide pp7 (peptide)
peptide: CD[pS]GLD[pS]M
IC50 of inhibition of pIκBα ubiquitination [4]: 10 µM

B6: singly phosphorylated IκBα peptide ppS36 (peptide)
peptide: CKKERLLDDRHDSGLD[pS]MKDEE
IC50 of inhibition of the pIκBα conjugation [4]: 400 µM

B7: doubly phosphorylated IκBα peptide pp11 (peptide)
peptide: CDDRHD[pS]GLD[pS]M
IC50 of inhibition of the pIκB conjugation reaction [4]: 5 µM
